Sequences and labels used below:
B1: CE115HA000 G98Y (antibody, human IgG1, kappa, L234A L235A, N297A, name in Kabat numbering)
heavy: QVQLVESGGGVVQPGRSLRLSCAASGFTFSNAWMHWVRQAPGKGLEWVAQIKAKSNNYATYYAESVKGRFTISRDDSKNSLYLQMNSLKTEDTAVYYCRYVHYYAYYGVDAWGQGTTVTVSSASTKGPSVFPLAPSSKSTSGGTAALGCLVKDYFPEPVTVSWNSGALTSGVHTFPAVLQSSGLYSLSSVVTVPSSSLGTQTYICNVNHKPSNTKVDKKVEPKSCDKTHTCPPCPAPEAAGGPSVFLFPPKPKDTLMISRTPEVTCVVVDVSHEDPEVKFNWYVDGVEVHNAKTKPREEQYASTYRVVSVLTVLHQDWLNGKEYKCKVSNKALPAPIEKTISKAKGQPREPQVYTLPPSRCELTKNQVSLSCAVKGFYPSDIAVEWESNGQPENNYKTTPPVLDSDGSFFLVSKLTVDKSRWQQGNVFSCSVMHEALHNHYTQKSLSLSPDYKDDDDK
chain: EPKSSDKTHTCPPCPAPELLGGPSVFLFPPKPKDTLMISRTPEVTCVVVDVSHEDPEVKFNWYVDGVEVHNAKTKPREEQYNSTYRVVSVLTVLHQDWLNGKEYKCKVSNKALPAPIEKTISKAKGQPREPQVCTLPPSRDELTKNQVSLWCLVKGFYPSDIAVEWESNGQPENNYKTTPPVLDSDGSFFLYSKLTVDKSRWQQGNVFSCSVMHEALHNRYTQKSLSLSP
light: DIVMTQSPLSLPVTPGEPASISCRSSQSLVHSNRNTYLHWYQQKPGQAPRLLIYKVSNRFSGVPDRFSGSGSGTDFTLKISRVEAEDVGVYYCGQGTQVPYTFGQGTKLEIKRTVAAPSVFIFPPSDEQLKSGTASVVCLLNNFYPREAKVQWKVDNALQSGNSQESVTEQDSKDSTYSLSSTLTLSKADYEKHKVYACEVTHQGLSSPVTKSFNRGEC
notes: one-arm antibody
B2: CE115HA000 H35M (antibody, human IgG1, kappa, L234A L235A, N297A, name in Kabat numbering)
heavy: B1 heavy with H35M, Y104G
chain: B1 chain
light: B1 light
notes: one-arm antibody
B3: CE115HA000 H35K (antibody, human IgG1, kappa, L234A L235A, N297A, name in Kabat numbering)
heavy: B1 heavy with H35K, Y104G
chain: B1 chain
light: B1 light
notes: one-arm antibody
B4: CE115HA000 H35L (antibody, human IgG1, kappa, L234A L235A, N297A, name in Kabat numbering)
heavy: B1 heavy with H35L, Y104G
chain: B1 chain
light: B1 light
notes: one-arm antibody
B5: CE115HA000 H35I (antibody, human IgG1, kappa, L234A L235A, N297A, name in Kabat numbering)
heavy: B1 heavy with H35I, Y104G
chain: B1 chain
light: B1 light
notes: one-arm antibody
B6: CE115HA000 G100bY (antibody, human IgG1, kappa, L234A L235A, N297A, name in Kabat numbering)
heavy: B1 heavy with Y104G, G108Y
chain: B1 chain
light: B1 light
notes: one-arm antibody
B7: CE115HA000 H96R (antibody, human IgG1, kappa, L234A L235A, N297A, name in Kabat numbering)
heavy: B1 heavy with H102R, Y104G
chain: B1 chain
light: B1 light
notes: one-arm antibody
B8: CE115HA000 H96G (antibody, human IgG1, kappa, L234A L235A, N297A, name in Kabat numbering)
heavy: B1 heavy with H102G, Y104G
chain: B1 chain
light: B1 light
notes: one-arm antibody
B9: CE115HA000 H35Q (antibody, human IgG1, kappa, L234A L235A, N297A, name in Kabat numbering)
heavy: B1 heavy with H35Q, Y104G
chain: B1 chain
light: B1 light
notes: one-arm antibody
B10: CE115HA000 H96P (antibody, human IgG1, kappa, L234A L235A, N297A, name in Kabat numbering)
heavy: B1 heavy with H102P, Y104G
chain: B1 chain
light: B1 light
notes: one-arm antibody
B11: CE115HA000 H35W (antibody, human IgG1, kappa, L234A L235A, N297A, name in Kabat numbering)
heavy: B1 heavy with H35W, Y104G
chain: B1 chain
light: B1 light
notes: one-arm antibody
B12: CE115HA000 G100bF (antibody, human IgG1, kappa, L234A L235A, N297A, name in Kabat numbering)
heavy: B1 heavy with Y104G, G108F
chain: B1 chain
light: B1 light
notes: one-arm antibody
B13: CE115HA000 H35D (antibody, human IgG1, kappa, L234A L235A, N297A, name in Kabat numbering)
heavy: B1 heavy with H35D, Y104G
chain: B1 chain
light: B1 light
notes: one-arm antibody
B14: CE115HA000 G100bS (antibody, human IgG1, kappa, L234A L235A, N297A, name in Kabat numbering)
heavy: B1 heavy with Y104G, G108S
chain: B1 chain
light: B1 light
notes: one-arm antibody
B15: CE115HA000 I51D (antibody, human IgG1, kappa, L234A L235A, N297A, name in Kabat numbering)
heavy: B1 heavy with I51D, Y104G
chain: B1 chain
light: B1 light
notes: one-arm antibody
B16: CE115HA000 H35G (antibody, human IgG1, kappa, L234A L235A, N297A, name in Kabat numbering)
heavy: B1 heavy with H35G, Y104G
chain: B1 chain
light: B1 light
notes: one-arm antibody
B17: CE115HA000 H35V (antibody, human IgG1, kappa, L234A L235A, N297A, name in Kabat numbering)
heavy: B1 heavy with H35V, Y104G
chain: B1 chain
light: B1 light
notes: one-arm antibody
B18: CE115HA000 H96S (antibody, human IgG1, kappa, L234A L235A, N297A, name in Kabat numbering)
heavy: B1 heavy with H102S, Y104G
chain: B1 chain
light: B1 light
notes: one-arm antibody
B19: CE115HA000 G100bD (antibody, human IgG1, kappa, L234A L235A, N297A, name in Kabat numbering)
heavy: B1 heavy with Y104G, G108D
chain: B1 chain
light: B1 light
notes: one-arm antibody
B20: CE115HA000 H35S (antibody, human IgG1, kappa, L234A L235A, N297A, name in Kabat numbering)
heavy: B1 heavy with H35S, Y104G
chain: B1 chain
light: B1 light
notes: one-arm antibody
B21: CE115HA000 H35R (antibody, human IgG1, kappa, L234A L235A, N297A, name in Kabat numbering)
heavy: B1 heavy with H35R, Y104G
chain: B1 chain
light: B1 light
notes: one-arm antibody
B22: CE115HA000 H35E (antibody, human IgG1, kappa, L234A L235A, N297A, name in Kabat numbering)
heavy: B1 heavy with H35E, Y104G
chain: B1 chain
light: B1 light
notes: one-arm antibody
B23: CE115HA000 H35T (antibody, human IgG1, kappa, L234A L235A, N297A, name in Kabat numbering)
heavy: B1 heavy with H35T, Y104G
chain: B1 chain
light: B1 light
notes: one-arm antibody
B24: CE115HA000 G100bL (antibody, human IgG1, kappa, L234A L235A, N297A, name in Kabat numbering)
heavy: B1 heavy with Y104G, G108L
chain: B1 chain
light: B1 light
notes: one-arm antibody
B25: CE115HA000 G100bE (antibody, human IgG1, kappa, L234A L235A, N297A, name in Kabat numbering)
heavy: B1 heavy with Y104G, G108E
chain: B1 chain
light: B1 light
notes: one-arm antibody
B26: CE115HA000 H35Y (antibody, human IgG1, kappa, L234A L235A, N297A, name in Kabat numbering)
heavy: B1 heavy with H35Y, Y104G
chain: B1 chain
light: B1 light
notes: one-arm antibody
B27: CE115HA000 H96Q (antibody, human IgG1, kappa, L234A L235A, N297A, name in Kabat numbering)
heavy: B1 heavy with H102Q, Y104G
chain: B1 chain
light: B1 light
notes: one-arm antibody
B28: CE115HA000 H35F (antibody, human IgG1, kappa, L234A L235A, N297A, name in Kabat numbering)
heavy: B1 heavy with H35F, Y104G
chain: B1 chain
light: B1 light
notes: one-arm antibody
B29: CE115HA000 H35N (antibody, human IgG1, kappa, L234A L235A, N297A, name in Kabat numbering)
heavy: B1 heavy with H35N, Y104G
chain: B1 chain
light: B1 light
notes: one-arm antibody
B30: CE115HA000 H96Y (antibody, human IgG1, kappa, L234A L235A, N297A, name in Kabat numbering)
heavy: B1 heavy with H102Y, Y104G
chain: B1 chain
light: B1 light
notes: one-arm antibody
B31: CE115HA000 H96L (antibody, human IgG1, kappa, L234A L235A, N297A, name in Kabat numbering)
heavy: B1 heavy with H102L, Y104G
chain: B1 chain
light: B1 light
notes: one-arm antibody
B32: CE115HA000 H96K (antibody, human IgG1, kappa, L234A L235A, N297A, name in Kabat numbering)
heavy: B1 heavy with H102K, Y104G
chain: B1 chain
light: B1 light
notes: one-arm antibody

Numbering of substitutions follows the chain as printed.

The source of these data is US20210388087A1 (Chugai, published 2021).

T1 sequence (P07766 23-126): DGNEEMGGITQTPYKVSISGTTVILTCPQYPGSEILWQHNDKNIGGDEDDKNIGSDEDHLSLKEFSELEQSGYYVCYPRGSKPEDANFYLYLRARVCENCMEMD

The assay addresses T1, CD3 epsilon homodimer protein (UniProt P07766 23-126).
T1 construct: also called CD3 (CD3 epsilon)
Description: SPR, CD3 epsilon homodimer on chip, one-arm antibody as analyte.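 Also: surface plasmon resonance at 25 °C with CD3 epsilon homodimer amine-coupled to a CM4 sensor chip, antibody injected as analyte, HBS-EP+ as running buffer.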
On to B1, for which the “KD ratio (KD of CE115HA000/KD of altered form)” value (shortened to “KD ratio”) was 2.75.
For B2, the “KD ratio” value was determined as 3.98.
For B3, the “KD ratio” value was 14.4.
Consider B4, for which the “KD ratio” value came to 4.8.
Consider B5, for which the “KD ratio” value is 7.23.
Then B6, with 51.4; and B7, with 1.59; and B8, with 0.8.
On to B9, for which the “KD ratio” value worked out at 4.8.
Regarding B10, the “KD ratio” value turned out to be 87000.
As to B11, the “KD ratio” value stood at 50.4.
Regarding B12, the “KD ratio” value came to 4.37.
Regarding B13, the “KD ratio” value worked out at 69.
As for B14, the “KD ratio” value was determined as 1.25.
Turning to B15, the “KD ratio” value came to 6.37.
On to B16, for which the “KD ratio” value stood at 45.8.
In the case of B17, the “KD ratio” value is 28.1.
Under B18 stands 1.15; under B19, 6.25.
Turning to B20, the “KD ratio” value turned out to be 2.93.
For the molecule B21, the “KD ratio” value was 15400.
Consider B22, for which the “KD ratio” value stood at 70.3.
Under B23 stands 4.4; under B24, 5.84.
Regarding B25, the “KD ratio” value was found to be 7.29.
For the molecule B26, the “KD ratio” value turned out to be 119000.
Turning to B27, the “KD ratio” value came to 1.36.
Under B28 stands 53.6; under B29, 2.88.
In the case of B30, the “KD ratio” value is 6.67.
As for B31, the “KD ratio” value stood at 3.14.
Consider B32, for which the “KD ratio” value came out at 1.56.
